B1: Complement C2 (protein)
chain: APSCPQNVNISGGTFTLSHGWAPGSLLTYSCPQGLYPSPASRLCKSSGQWQTPGATRSLSKAVCKPVRCPAPVSFENGIYTPRLGSYPVGGNVSFECEDGFILRGSPVRQCRPNGMWDGETAVCDNGAGHCPNPGISLGAVRTGFRFGHGDKVRYRCSSNLVLTGSSERECQGNGVWSGTEPICRQPYSYDFPEDVAPALGTSFSHMLGATNPTQKTKESLGRKIQIQRSGHLNLYLLLDCSQSVSENDFLIFKESASLMVDRIFSFEINVSVAIITFASEPKVLMSVLNDNSRDMTEVISSLENANYKDHENGTGTNTYAALNSVYLMMNNQMRLLGMETMAWQEIRHAIILLTDGKSNMGGSPKTAVDHIREILNINQKRNDYLDIYAIGVGKLDVDWRELNELGSKKDGERHAFILQDTKALHQVFEHMLDVSKLTDTICGVGNMSANASDQERTPWHVTIKPKSQETCRGALISDQWVLTAAHCFRDGNDHSLWRVNVGDPKSQWGKEFLIEKAVISPGFDVFAKKNQGILEFYGDDIALLKLAQKVKMSTHARPICLPCTMEANLALRRPQGSTCRDHENELLNKQSVPAHFVALNGSKLNINLKMGVEWTSCAEVVSQEKTMFPNLTDVREVVTDQFLCSGTQEDESPCKGESGGAVFLERRFRFFQVGLVSWGLYNPCLGSADKNSRKRAPRSKVPPPRDFHINLFRMQPWLRQHLGDVLNFLPL
B2: Isoform 2 of N-acetylmuramoyl-L-alanine amidase (protein)
chain: SLPLLMDSVIQALAELEQKVPAAKTRHTASAWLMSAPNSGPHNRLYHFLLGAWSLNATELDPCPLSPELLGLTKEVARHDVREGKEYGVVLAPDGSTVAVEPLLAGLEAGLQGRRVINLPLDSMAAPWETGDTFPDVVAIAPDVRATSSPGLRDGSPDVTTADIGANTPDATKGCPDVQASLPDAKAKSPPTMVDSLLAVTLAGNLGLTFLRGSQTQSHPDLGTEGCWDQLSAPRTFTLLDPKASLLTMAFLNGALDGVILGDYLSRTPEPRPSLSHLLSQYYGAGVARDPGFRSNFRRQNGAALTSASILAQQVWGTLVLLQRLEPVHLQLQCMSQEQLAQVAANATKEFTEAFLGCPAIHPRCRWGAAPYRGRPKLLQLPLGFLYVHHTYVPAPPCTDFTRCAANMRSMQRYHQDTQGWGDIGYSFVVGSDGYVYEGRGWHWVGAHTLGHNSRGFGVAIVGNYTAALPTEAALRTVRDTLPSCAVRAGLLRPDYALLGHRQLVRTDCPGDALFDLLRTWPHFTAVSLRSLHYTARRPSVYTSSTRPLPPACNSCARTASARPPTSRRHVYSGNLGPAFAGHSAGNIPDPVTSAYAASAQPQTQPACPFPSS
B3: Ig lambda chain V-III region LOI (protein)
chain: VTSYVLTQPPSVSVAPGQTARITCGGNNIGSKSVHWYQQKPGQAPVLVVYDDSDRPSGIPERFSGSNSGNTATLTISRVEAGDEADYYCQVWDSSSDHPT

The molecules below were run against T1, Abeta-42 plaque particles (Homo sapiens, UniProt P05067) (assay: Mass spectroscopy proteomics, semi-quantitative binding affinity of serum proteins (plaqueproteome, Table 2)). Settings: higher number = stronger affinity.
T1 construct: Abeta 1-42
Procedure, shortened: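 AD patient serum or plasma (50% in PBS) was incubated with Abeta-42 aggregates (30 μg) for 1 h at 37 °C, then stained with Thioflavin S for 30 min. Labeled particles were FACS-sorted, trypsin/Lys-C digested overnight and analyzed by MS/MS. Sequest searched human UniProt; Scaffold/Protein Prophet validated the identifications.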

Row | Molecule | Semi-quantitative analysis of proteins binding to different plaque particles: Abeta-42
1 | B1 | 0
2 | B2 | 0
3 | B3 | 2

These molecules were tested against T2, alpha-synuclein plaque particles (Homo sapiens, UniProt P37840) in the same assay as above. Settings: higher number = stronger affinity.
T2 construct: 140 amino acids polypeptide
Procedure, shortened: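 AD-subject plasma or serum (800 μL of 50%) mixed with 30 μg preformed alpha-synuclein aggregates for 1 h at 37 °C; Thioflavin S-positive particles isolated by flow sorting. After reduction, acrylamide alkylation and overnight tryptic digestion, serum proteins identified by MS/MS with Sequest and Scaffold.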

Row | Molecule | Semi-quantitative analysis of proteins binding to different plaque particles: Synuclein
4 | B1 | 0
5 | B2 | 2
6 | B3 | 2

The molecules below were run on Tau plaque particles in the same assay as above. Settings: higher number = stronger affinity.
Set-up: species or system human
Procedure, shortened: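 Serum or plasma proteins captured on Thioflavin S-labelled Tau plaque particles (Tau-74, Tau-275 oligomers preformed in PBS at 37° C for 2 h; 1 h co-incubation at 37° C) were isolated by FACS sorting, then tryptically digested and identified by MS/MS (Sequest, human UniProt, strict trypsin).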

Row | Molecule | Semi-quantitative analysis of proteins binding to different plaque particles: Tau
7 | B1 | 0
8 | B2 | 5
9 | B3 | 1

Each molecule was assayed on High Density cholesterol (Chl Large) plaque particles in the same assay as above. Settings: higher number = stronger affinity.
Set-up: species or system human
Procedure, shortened: (§1)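 Atherosclerotic plasma/serum (50% in PBS) + 30 μg cholesterol aggregates, 1 hr 37° C; FACS gates split low- vs high-density particles. Acetone precipitation, urea/ProteaseMAX, acrylamide alkylation, overnight Trypsin/Lys C at 37° C; Sequest search, Scaffold/Protein Prophet validation.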

Row | Molecule | Semi-quantitative analysis of proteins binding to different plaque particles: Chl Large
10 | B1 | 0
11 | B2 | 4
12 | B3 | 1

Each molecule was assayed on Low density cholesterol (Chl small) plaque particles in the same assay as above. Settings: higher number = stronger affinity.
Set-up: species or system human
Procedure, shortened: as §1

Row | Molecule | Semi-quantitative analysis of proteins binding to different plaque particles: Chl small
13 | B1 | 1
14 | B2 | 1
15 | B3 | 1

From US9618524B2, “Method, composition, isolation and identification of a plaque particle and related biomarker” (Plaxgen Inc., priority 2012, dated 2017)
